Assay [1] concerns the target T1, pVHL (HA-tagged: 35S-HA-pVHL in vitro translate, or HA-pVHL produced in ts20 and WT8 cells) (UniProt P40337 1-213).
T1 construct: Also used for sentences that say only 'pVHL'; In cell lysates pVHL is in complex with elongin B, elongin C and Cul2; also called 35S-labeled pVHL; HA-VHL; not shown: HA tag
The assay is described as follows: biotinylated peptide, pVHL binding.

For assay [2], the target named is T1, pVHL (HA-tagged: 35S-HA-pVHL in vitro …). The assay is described as follows: biotinylated peptide on avidin Sepharose, 35S-pVHL.
For assay [3], the target named is T2, GST-VHL, elongin B, elongin C complexes (GST-VBC), immobilized on glutathione sepharose (UniProt P40337 54-213; Q15370 1-118; Q15369 17-112).
T2 construct: also called VBC-GST; GST-pVHL, elongin B, elongin C complexes
The assay can be described thus: capture with immobilized GST-VBC.

The results in this text go back to US20040248233A1 (Dana-Farber, published 2004).

Numbering of substitutions follows the chain as printed. Ends that are not written are not given here.

T1 sequence (P40337 whole entry): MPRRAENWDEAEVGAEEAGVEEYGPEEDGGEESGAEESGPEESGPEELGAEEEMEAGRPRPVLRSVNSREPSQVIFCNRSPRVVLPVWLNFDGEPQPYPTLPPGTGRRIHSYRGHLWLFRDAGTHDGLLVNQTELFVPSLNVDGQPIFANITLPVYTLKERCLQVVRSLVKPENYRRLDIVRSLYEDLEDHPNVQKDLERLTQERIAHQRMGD

Turning to DLDLEMLAPYIPADDDFQLR (peptide, UniProt Q16665 556-575, looked up, also: biotinylated (position not given here)) [biotinylated HIF (556-575) peptide with the single substitution Met568 to alanine], in assay [1], the binding result is reported as “binds”.
Take DLDLEMLAAYIPMDDDFQLR (peptide, UniProt Q16665 556-575, looked up, also: biotinylated (position not given here)) [biotinylated HIF1α (556-575) peptide Pro564Ala]: the binding result in assay [2] was “no binding”.
DLDLEALAPYIPMDDDFQLR (peptide, UniProt Q16665 556-575, looked up, also: biotinylated (position not given here)) [biotinylated HIF (556-575) peptide with the single substitution Met561 to alanine]: in assay [1], the binding result is on record as “binds”.
With DLDLEALAPYIPADDDFQLR (peptide, UniProt Q16665 556-575, looked up, also: biotinylated (position not given here), also called double alanine substitution) [biotinylated HIF (556-575) peptide with Met561 and Met568 converted to alanine], the binding result in assay [1] is recorded as “binds”.

B1: Pro564Ala Gal4-HA-HIF1α (530-652) (other)
chain: EFKLELVEKLFAEDTEAKNPFSTQDTDLDLEMLAAYIPMDDDFQLRSFDQLSPLESSSASPESASPQSTVTVFQQTQIQEPTANATTTTATTDELKTVTKDRMEDIKILIASPSPTHIHKETT
notes: range 530-652; also called Gal4-ODD Pro564Ala; not shown: Gal4 moiety and HA tag
B1: the binding result in assay [3] is listed as “no binding”.

B2: Leu562Ala Gal4-HA-HIF1α (530-652) (other)
chain: B1 chain with L33A, A35P
notes: range 530-652; also called Gal4-ODD Leu562Ala; not shown: Gal4 moiety and HA tag
Regarding B2, the binding result in assay [3] is “no binding”.
